Results from the supplement of paper PMC9732359.
± gives the uncertainty stated by the source.

Assay: protein stability index of a GFP-peptide fusion (yeast GPS) (PSI 1-4); higher = more stable; sorted into four equal gates, so the index is relative within each strain
Procedure, shortened: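 Plasmids in a pooled yeast library fused tiled 17-residue yeast protein peptides downstream of GFP and also expressed Cherry. Mid-log cultures grown without leucine were sorted into four equal gates by GFP/Cherry fluorescence ratio. Each gate's plasmids were PCR-amplified and Illumina-sequenced, and reads were matched to strains by barcodes. The protein stability index is derived by multiplying each gate's read frequency by its gate number and summing the results.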

Sequence | protein stability index (doa10∆) | protein stability index (pdr5∆) | protein stability index (san1∆) | protein stability index (ubr1∆)
GGDWERRNRYKTYYGIH [RPN7] | 1.24 ± 0.049 | 1.4 ± 0.074 | 1.29 ± 0.13 | 1.18 ± 0.044
NALDKLRNNLNSLIEEI [YCG1] | 3.22 ± 0.12 | 3.26 ± 0.1 | 2.27 ± 0.21 | 3.08 ± 0.092
RKVREQEELKKRQELEE [MED2] | 1.86 ± 0.039 | 2.36 ± 0.048 | 1.96 ± 0.1 | 2.55 ± 0.033
IDEIDAIGTKRYDSNSG [RPT2] |  | 2.26 ± 0.14 | 2.36 ± 0.087 | 2.92 ± 0.19
NKNGENKKIGKRPPEIM [SIR4] | 3.09 ± 0.12 | 3.21 ± 0.11 | 3.28 ± 0.14 | 3.28 ± 0.091
DDDDDDDDEVDYSEIQR [DSN1] | 2.98 ± 0.067 | 3.49 ± 0.087 | 3.41 ± 0.044 | 3.16 ± 0.084
LDKLDEILYYQIKTLPE [AAR2] | 2.89 ± 0.13 | 2.97 ± 0.14 | 3 ± 0.13 | 3.25 ± 0.15
PNRIKLSKEVPFSYLID [SRB5] | 2.44 ± 0.062 | 2.15 ± 0.058 | 1.98 ± 0.1 | 2.12 ± 0.06
GDNTSDVDMEDRNLTEF [RRI1] |  | 3.08 ± 0.13 | 3.27 ± 0.18 | 3.19 ± 0.058
DQFQWILRKPGKDCKLQ [RRI2] | 2.62 ± 0.19 | 3.25 ± 0.17 | 3.26 ± 0.16 | 3.3 ± 0.16
IDDANVTRKQEDARRNP [RPC37] | 1.45 ± 0.15 | 1.8 ± 0.081 | 2.06 ± 0.13 | 2.01 ± 0.1
IIRHEKELEPWDLQLQE [SMC4] | 3.28 ± 0.15 | 2.82 ± 0.13 |  | 3.47 ± 0.16
IPKPRTAGKTSVKSART [SNF2] | 3.38 ± 0.1 | 3.26 ± 0.069 | 2.89 ± 0.065 | 3.09 ± 0.048
KKSKNGTISKTGKKNKV [SRP14] | 2.93 ± 0.11 | 3.26 ± 0.089 | 3.14 ± 0.059 | 3.51 ± 0.057
LQKKVASILLALTQMDQ [RPB3] | 2.88 ± 0.15 | 2.9 ± 0.14 | 2.16 ± 0.15 | 2.62 ± 0.066
GGLSGEESIKIYPLIKP [UBP6] | 2.48 ± 0.12 | 2.68 ± 0.076 | 1.88 ± 0.15 | 2.16 ± 0.09
NTFGSSSLFNNSTNSNT [YJL041W/NSP1] | 2.42 ± 0.06 | 2.44 ± 0.053 | 3.12 ± 0.041 | 2.5 ± 0.05
KNDTKILVLALEDLKDV [PRP8] | 1.6 ± 0.1 | 1.96 ± 0.099 | 1.55 ± 0.11 | 1.73 ± 0.055
APNTLTNILISPLNTTT [YML103C/NUP188] | 2.23 ± 0.062 | 2.13 ± 0.057 | 2.03 ± 0.086 | 1.82 ± 0.045
FELSFTGAPPYYYNTKI [YMR129W/POM152] | 2.75 ± 0.089 | 1.99 ± 0.12 | 2.66 ± 0.15 | 3.21 ± 0.12
TVPELEIPTQIYRTTRQ [ARP9] | 2.39 ± 0.076 | 2.8 ± 0.066 | 2.35 ± 0.08 | 2.83 ± 0.067
KMDMICRNINRKHRNAQ [DIS3] | 2.2 ± 0.074 | 2.5 ± 0.11 | 2.37 ± 0.086 | 3.12 ± 0.12

Sequence | protein stability index (doa10∆) | protein stability index (pdr5∆) | protein stability index (san1∆) | protein stability index (ubr1∆)
AAEFRYKYGYDMPCDVL [SCL1] | 2.64 ± 0.078 | 2.79 ± 0.057 | 2.69 ± 0.054 | 2.33 ± 0.059
NLLLSASRDKTLISWKL [ASC1] | 2.59 ± 0.071 | 2.79 ± 0.06 | 3.21 ± 0.05 | 2.2 ± 0.069
NEDENIQLIKILNSHFD [YJL041W/NSP1] | 2.77 ± 0.052 | 2.98 ± 0.056 | 3.142 ± 0.03 | 2.85 ± 0.037
RLILLLNHRNKNQHRAA [RMP1] | 1.44 ± 0.09 | 1.51 ± 0.079 | 1.34 ± 0.12 | 2.13 ± 0.089
DEDDDLDEDDVNADDDD [RPB4] | 3.12 ± 0.1 | 3.13 ± 0.086 | 2.09 ± 0.16 | 3 ± 0.11
AQLTLKRCKHFELGGEK [RPL42A] | 1.93 ± 0.12 | 2.46 ± 0.11 | 2.89 ± 0.069 | 2.56 ± 0.076
PTSPSYSPTSPSYSPTS [RPO21] | 2.59 ± 0.044 | 2.99 ± 0.041 | 2.66 ± 0.04 | 2.85 ± 0.037
ERPAIEFETPTFLVSND [RPN14] | 3 ± 0.063 | 3.14 ± 0.056 | 2.81 ± 0.06 | 2.9 ± 0.089
IAVLRSKEWFQLDDEDF [FAS1] | 2.03 ± 0.041 | 2.09 ± 0.041 | 1.81 ± 0.058 | 2.32 ± 0.038
VEGPKFTIDAKPPISDS [YLR335W/NUP2] | 3.31 ± 0.048 | 3.47 ± 0.058 | 3.29 ± 0.048 | 3.36 ± 0.046
GAIIGWTRGTGLMSANN [FAS2] | 2.89 ± 0.087 | 2.83 ± 0.083 | 3.08 ± 0.091 | 2.78 ± 0.29
GGAKSRGVRPYKHIDAS [RPS19A] | 3.12 ± 0.11 | 3.38 ± 0.14 | 2.93 ± 0.082 | 2.98 ± 0.12
DIGKGAETTFLQDVIAL [RPC53] | 2.52 ± 0.073 | 2.31 ± 0.1 | 2.38 ± 0.11 | 2.71 ± 0.056
LKYLSVEEVIKLVRDSF [PRE7] | 2.71 ± 0.13 | 3.27 ± 0.11 | 2.72 ± 0.12 | 3.08 ± 0.078
ALAQQKLLTPQDMEAAK [GAL11] | 3.2 ± 0.12 | 3.38 ± 0.13 | 3.4 ± 0.1 | 3.32 ± 0.095
IDRPKHELSRAELEELE [SMD2] | 3.27 ± 0.083 | 3.27 ± 0.15 | 3.32 ± 0.07 | 3.38 ± 0.1
NGVIIAADNLGSYGSLL [PRE4] | 3.05 ± 0.13 | 3.15 ± 0.13 | 2.92 ± 0.21 | 3.12 ± 0.2
WVKKFKWAGIKTRKFVF [CYT1] | 1.14 ± 0.12 | 1.51 ± 0.1 |  | 1.27 ± 0.074
RWYQLIATGCKDGRIRI [YGL100W/SEH1] | 2.31 ± 0.065 | 2.26 ± 0.057 | 2.18 ± 0.078 | 2.43 ± 0.044
AAQIFGSYNAFEPASRL [COR1] | 2.33 ± 0.07 | 1.55 ± 0.064 | 1.41 ± 0.16 | 1.51 ± 0.082
HPKIVKKHTKKFKRHHS [RPL32] | 2.74 ± 0.054 | 3.06 ± 0.059 | 2.66 ± 0.045 | 3.02 ± 0.037
